The values below come from patent publication US8299032B2, “Self-assembling peptide and gel produced from the same” (Menicon Co., Ltd., priority 2005, dated 2012).

Assay type in all cases: physicochemical
The nature of data set [1]: Confirmation of beta-sheet structure formation by circular dichroism measurement. Conditions: 3×10^−3 M peptide in 0.1 M Tris-HCl (pH 7.5). On the procedure:
The formation of each of the beta (β)-sheet structures of Peptide Nos. 1 to 9 and 12 synthesized in Production Examples 1 and 2 mentioned above was confirmed in accordance with circular dichroism measurement method. Concretely, each of the peptides was dissolved in 0.1 M Tris-HCl (pH 7.5) to prepare a 3×10^−3 M peptide solution. The resulting peptide solution was filled into a quartz cell having an optical path length of 0.5 mm (manufactured by JASCO, trade name: 110J cylindrical cell, volume: 0.04 mL), and the quartz cell was set in trade name J-820K Spectropolarimeter (manufactured by JASCO), and the molar ellipticities at 195 to 260 nm for the peptide solutions were determined in accordance with the circular dichroism measurement method.
(CD spectra are sensitive to the conformation of chiral molecules.)

The nature of data set [2]: Dynamic viscoelasticity of peptide aqueous solution (storage modulus G′, loss modulus G″). The following applies: 0.5 wt %, acidic aqueous solution (pH 3.5). An excerpt:
In addition, the term “gel” as used herein refers to a viscoelastic substance having both viscous property and elastic property. Concretely, the gel refers to a substance satisfying the formula G′>G″, in a case where the gel is subjected to dynamic viscoelasticity measurement to determine a storage elastic modulus G′ and a loss elastic modulus G″.
The dynamic viscoelasticity can be determined with a dynamic viscoelasticity measurement apparatus as described in Examples set forth below. Concretely, the dynamic viscoelasticity can be determined by placing a sample on an iron plate, compressing the sample with an iron cone, and monitoring a stress applied to a motor rotating the iron cone when the cone is rotated.
The storage elastic modulus G′ and the loss elastic modulus G″ of a 0.5% by weight peptide (Peptide Nos. 1 to 10 mentioned above)-containing aqueous solution were determined with an instrument under the trade name of AR1000 (manufactured by TA Instruments Japan). […] Next, the 0.5% by weight peptide-containing aqueous solution was compressed, and a stress applied to a motor was monitored when the iron cone was rotated, while varying the frequency of the cone within the range of 0.1 to 10 rad/sec.

Data set [3] is described as follows: Gel formation, test tube placed up-side-down. Conditions: 37° C. for 24 hours; for Gel Formation: peptide 0.5% by weight; for gel formation in neutral aqueous solution (summary of Table 11): neutral aqueous solutions, 0.5% by weight. Also on record: key to Gel Formation: Excellent: those in which the contents did not drop off were evaluated as the gel formation being “excellent”; Poor: those in which the contents dropped off were evaluated as being “poor.”. On the procedure: Peptide Nos. 1, 2, 4, 5, 6, 10 and 11 synthesized in Production Examples 1 and 2 were dissolved in each of aqueous solutions listed in Table 11. A 1.5 mL test tube was charged with 1 mL of the resulting peptide-containing aqueous solution. Next, the test tube was allowed to stand at 37° C. for 24 hours.

Data set [4] is described as follows: Visible light transmittance of peptide gel (380 to 780 nm). Conditions: for decreasing ratio of visible light transmittance: after 2 months at room temperature versus before storage; for visible light transmittance (average) after standing: gel allowed to stand at room temperature for 2 months; for Visible Light Transmittance (average, 380 to 780 nm): gel of 0.5% by weight peptide in 0.1 M Tris-HCl (pH 7.5), optical path length 10 mm; for long-term stability of gel (no white turbidity): room temperature, 2 months. An excerpt:
In a case where the gel of the present invention is used, for example, as a scaffold for a three-dimensional culture of the cells, it is desired that the used concentration of the self-assembling peptide of the present invention upon gel formation in a medium for cell culture is preferably 0.3% by weight or more, and more preferably 0.5% by weight or more, from the viewpoint of easiness in gel formation, and that the used concentration of the peptide is preferably 5% by weight or less, and more preferably 2% by weight or less, from the viewpoint of easy miscibility with the cells. In addition, in such a case, it is preferable that the gel is transparent, from the viewpoint of easiness in cell observation with a fluorescent microscope or the like. For example, in a gel containing 0.5% by weight of a self-assembling peptide, it is desired that the visible light transmittance which is determined in terms of absorbance at 380 to 780 nm in a cell having an optical path of 10 mm is at least 50%/cm, and it is desired that the visible light transmittance is preferably 70%/cm or more, and more preferably 90% 1 cm or more. Further, it is desired that the visible light transmittance of the gel after allowing it to stand at room temperature for a long period of time, for example, 2 months, is preferably 50%/cm or more, more preferably 70%/cm or more, and even more preferably 90%/cm or more, from the viewpoint of long-term stability of the gel, and that the decreasing ratio (%) of the visible light transmittance (100−(visible light transmittance after storage/visible light transmittance before storage×100)) is preferably 30% or less, more preferably 20% or less, and even more preferably 10% or less. The transparency of the gel can be determined with UV/VIS measurement apparatus as described in Examples set forth below.
Peptide Nos. 1 to 9 synthesized in Production Examples 1 and 2 were dissolved in 0.1 M Tris-HCl (pH 7.5), to prepare a gel composed of a 0.5% by weight peptide solution. The visible light transmittance of the prepared gel within the range of from 380 to 780 nm was determined using a cell having an optical path length of 10 mm and trade name V-550 UV/VIS Spectrometer (manufactured by JASCO).
Therefore, it could be seen that each of Peptide Nos. 1 to 9 mentioned above formed a transparent gel. In addition, of the above gels, the gel comprising each of Peptide Nos. 1, 4, 6, or 7 was allowed to stand at room temperature for 2 months, and the visible light transmittance was determined in the same manner as above. As a result, an average thereof was respectively 88, 87, 91, or 93%/cm, and the decreasing ratio was respectively 9.3, 5.4, 6.2, or 4.1%. In other words, the gel after 2 months passed from the preparation also maintained high visible light transmittance.

For “HKHQHDHKHQHDHKHQHD (Synthetic peptide which is not a peptide of the invention) [Peptide No. 12, peptide not having a nonpolar amino acid residue, not a peptide of the present invention]”, in data set [1], the “formation of beta (β)-sheet structure in aqueous solution” value is reported as “did not form a beta(β)-sheet structure”.

For “RADARADARADARADA [Peptide No. 10, reference compound]”, the “gel formation by dynamic viscoelasticity” value in data set [2] was “formed the gel in an acidic aqueous solution”. Further, the “Gel Formation” value in data set [3] (PBS pH 7.4) is listed as “Poor”. In addition, the “gel formation in neutral aqueous solution (summary of Table 11)” value (“gel formation … (summary of Table 11)” below) in data set [3] is recorded as “did not form into gel in a neutral aqueous solution”.

In the case of “RASARADARASARADA (Synthetic self-assembling peptide of the invention) [Peptide No. 1, self-assembling peptide of the present invention]”, the “Gel Formation” value in data set [3] (D-MEM/F12(1:1) Medium pH 7.5), in data set [3] (PBS pH 7.4), in data set [3] (Tris-HCl 0.05 M pH 7.5), in data set [3] (Tris-HCl 0.1 M pH 7.5), in data set [3] (Tris-HCl 0.2 M pH 7.5) and in data set [3] (Tris-HCl 0.4 M pH 7.5) was “Excellent” each time. The “Gel Formation” value in data set [3] (Tris-HCl 0.6 M pH 7.5), in data set [3] (Tris-HCl 0.8 M pH 7.5) and in data set [3] (Tris-HCl 1 M pH 7.5) was “Excellent” in each case. For the same sequence, in data set [3], the “gel formation … (summary of Table 11)” value was “formed into gel in various neutral aqueous solutions”. In addition, the “decreasing ratio of visible light transmittance” value in data set [4] was 9.3%. Besides, the “visible light transmittance (average) after standing” value in data set [4] is recorded as 88 %/cm. In addition, the “Visible Light Transmittance (average, 380 to 780 nm)” value in data set [4] amounted to 97%. For the same sequence, in data set [4], the “long-term stability of gel (no white turbidity)” value is recorded as “stable for a long period of time without becoming white turbid”.

Take “RASARASARASARADA (Synthetic self-assembling peptide of the invention) [Peptide No. 6, self-assembling peptide of the present invention]”: the “Gel Formation” value in data set [3] (Tris-HCl 0.1 M pH 7.5) is reported as “Excellent”. Moreover, in data set [3], the “gel formation … (summary of Table 11)” value is on record as “formed into gel in various neutral aqueous solutions”. Also, in data set [4], the “decreasing ratio of visible light transmittance” value came out at 6.2%; the “visible light transmittance (average) after standing” value is recorded as 91 %/cm; the “Visible Light Transmittance (average, 380 to 780 nm)” value was determined as 97%; the “long-term stability of gel (no white turbidity)” value is listed as “stable for a long period of time without becoming white turbid”.
